# Measurements as given in PMC7733260, “Long non-coding RNA NEAT1 promotes bone metastasis of prostate cancer through N6-methyladenosine”.
# T1: CYCLINL1 (cyclin L1) (UniProt Q9UK58 1-526)
# T1 sequence: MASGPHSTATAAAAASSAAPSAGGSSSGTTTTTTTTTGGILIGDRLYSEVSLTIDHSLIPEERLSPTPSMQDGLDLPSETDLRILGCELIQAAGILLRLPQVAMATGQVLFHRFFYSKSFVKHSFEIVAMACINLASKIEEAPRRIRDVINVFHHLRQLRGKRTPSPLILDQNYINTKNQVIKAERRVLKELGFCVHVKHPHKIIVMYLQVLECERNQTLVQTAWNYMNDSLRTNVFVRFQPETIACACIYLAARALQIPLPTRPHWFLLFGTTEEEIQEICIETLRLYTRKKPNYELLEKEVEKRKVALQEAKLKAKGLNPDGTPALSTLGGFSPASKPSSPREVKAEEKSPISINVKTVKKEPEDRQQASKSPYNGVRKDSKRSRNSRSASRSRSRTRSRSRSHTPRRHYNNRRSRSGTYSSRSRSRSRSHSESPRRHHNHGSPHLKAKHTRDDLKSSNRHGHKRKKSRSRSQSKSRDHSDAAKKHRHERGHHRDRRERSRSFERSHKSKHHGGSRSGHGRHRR
# B1: Probe m6A in Fig3e (NEAT1-1 site #4) (ssRNA)
# RNA: UUAUUUUUAUCGUUGGGAUCUUUCUGUCUUCUGGGUUCCAUUUUUUAAAUGUUUAAAAAUAUGUUGACAUGGUAGUUCAGUUCUUAACCAAUGACUUGGGGAUGA
# modifications: m6A at site #4 (A3494); stoichiometry and installation not stated
# What was measured:
# CDK19 = CDK19 (UniProt Q9BWU1 1-502); assay: EMSA; 10 mM Mg2+, tRNA, RNase T1; EMSA: 10 mM Tris-Cl pH 7.5, 25 mM KCl, 10 mM MgCl2, 1 mM DTT, 100 ng/ml tRNA, 25 C 30 min, then RNase T1 37 C 15 min. Pull-down: lysate in 50 mM Tris-HCl pH 7.5, 150 mM NaCl, 1% NP-40, 0.1% SDS, 4 C 12 h; wash 50 mM Tris pH 7.4, 150 mM NaCl, 0.05% NP-40, 1 mM MgCl2; settings: protein: ivt; tags: Flag; label: 3' biotin
# Chain of CDK19 (Q9BWU1 whole entry): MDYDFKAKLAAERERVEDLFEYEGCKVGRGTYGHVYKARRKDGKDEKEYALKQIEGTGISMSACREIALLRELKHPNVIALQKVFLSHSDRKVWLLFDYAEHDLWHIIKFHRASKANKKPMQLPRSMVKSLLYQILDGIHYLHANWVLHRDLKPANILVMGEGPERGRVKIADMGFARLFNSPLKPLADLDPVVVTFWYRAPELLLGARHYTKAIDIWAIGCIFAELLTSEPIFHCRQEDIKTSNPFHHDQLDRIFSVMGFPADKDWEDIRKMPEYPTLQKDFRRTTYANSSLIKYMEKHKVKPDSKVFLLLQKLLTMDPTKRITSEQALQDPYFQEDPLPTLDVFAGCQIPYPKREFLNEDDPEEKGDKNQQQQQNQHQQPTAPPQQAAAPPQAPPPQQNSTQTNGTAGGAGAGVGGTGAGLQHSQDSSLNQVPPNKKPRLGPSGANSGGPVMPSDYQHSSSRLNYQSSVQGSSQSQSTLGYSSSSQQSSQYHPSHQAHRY
# CYCLINL1 (cyclin L1) = target: T1, CYCLINL1 (cyclin L1); assay: as above; settings: protein: ivt; tags: Myc; label: 3' biotin
Binder,binding result (CDK19),binding result (CYCLINL1 (cyclin L1))
GCAGCCCCUUUUUUUCCAGACCAAGGGCUGUGA (ssRNA) [Probe WT in Fig3e (NEAT1-1 U-rich)],binds,–
B1,–,binds
